{"source": "paper PMC11005391", "about": "“Tetramerization is essential for the enzymatic function of the Pseudomonas aeruginosa virulence factor UDP-glucose pyrophosphorylase” (mBio, 2024)", "key": {"[1]": {"molecular_target": "the molecule itself", "assay": "SEC; as a1, but the more diluted sample of mutants with dilution-dependent behaviour (footnote b of Table 1; broken lines in Fig. 5 and Fig. S9)"}, "[2]": {"molecular_target": "the molecule itself", "assay": "cell-based or functional assay"}, "Q9I291 [3]": {"molecular_target": "Q9I291", "assay": "SEC; as a1, but the more diluted sample of mutants with dilution-dependent behaviour (footnote b of Table 1; broken lines in Fig. 5 and Fig. S9)"}, "[4]": {"molecular_target": "the molecule itself", "assay": "native gel or EMSA; blue native PAGE, uniform 12% polyacrylamide gel with 3.5% stacking gel, 13.5 ug of each protein loaded, Coomassie-stained bands"}, "[5]": {"molecular_target": "the molecule itself", "assay": "SEC; Superdex 200 10/300 GL, 50 mM Tris-HCl pH 8.0, 300 mM NaCl, 10 mM MgCl2; oligomeric state calculated from elution volumes of proteins of known size; addition of UTP, Glc-1-P or UDP-Glc did not affect the oligomerization of the WT"}, "Q9I291 [6]": {"molecular_target": "Q9I291", "assay": "SEC; Superdex 200 10/300 GL, 50 mM Tris-HCl pH 8.0, 300 mM NaCl, 10 mM MgCl2; oligomeric state calculated from elution volumes of proteins of known size; addition of UTP, Glc-1-P or UDP-Glc did not affect the oligomerization of the WT"}, "[7]": {"molecular_target": "the molecule itself", "assay": "SEC; Superdex 200 10/300 GL, 50 mM Tris-HCl pH 8.0, 300 mM NaCl, 10 mM MgCl2; oligomeric state calculated from elution volumes of proteins of known size; addition of UTP, Glc-1-P or UDP-Glc did not affect the oligomerization of the WT", "remark": "listed apart in the source"}}, "data": [{"protein": "PaUGP R57A (enzyme, UDP-glucose pyrophosphorylase of Pseudomonas aeruginosa (galU), residues 1-279, point mutant of Strep-PaUGP; Same construct as m1; source: E. coli BL21(DE3), purified (Strep-Tactin Sepharose); not shown: Strep-tagII, N-terminal, kept) MIKKCLFPAAGYGTRFLPATKAMPKEMLPVVNKPLIQYAVEEALEAGLSEIGIVTGAGKRSLEDHFDISYELEHQIRNTDKEKYLVGIRRLIDECTFAYTRQVEMKGLGHAILTGRPLIGDEPFAVVLADDLCLNLEGDSVLKQMVKLYNQFRCSIVAIQEVPPEETNKYGVIAGEMIRDDIFRVNTMVEKPKPEEAPSNLAIIGRYILTPDIFDLIEQTEPGKGGEIQITDALMKQAQDGCVLAYKFKGKRFDCGSAEGYIEATNFCYENLYKTGKAH", "values": [{"measurement": "stoichiometry N", "setting": "[1]", "value": 2.4}, {"measurement": "In vitro activity (% of WT), EnzChek pyrophosphate assay, forward reaction", "setting": "[2]", "value": "1.28 % of WT"}, {"measurement": "N of the monomer peak (minor peak)", "setting": "Q9I291 [3]", "value": 1.2}, {"measurement": "stoichiometry N", "setting": "[4]", "value": 4}]}, {"protein": "PaUGP Y70F (enzyme, UDP-glucose pyrophosphorylase of Pseudomonas aeruginosa (galU), residues 1-279, point mutant of Strep-PaUGP; Same construct as m1; source: E. coli BL21(DE3), purified (Strep-Tactin Sepharose); not shown: Strep-tagII, N-terminal, kept) MIKKCLFPAAGYGTRFLPATKAMPKEMLPVVNKPLIQYAVEEALEAGLSEIGIVTGRGKRSLEDHFDISFELEHQIRNTDKEKYLVGIRRLIDECTFAYTRQVEMKGLGHAILTGRPLIGDEPFAVVLADDLCLNLEGDSVLKQMVKLYNQFRCSIVAIQEVPPEETNKYGVIAGEMIRDDIFRVNTMVEKPKPEEAPSNLAIIGRYILTPDIFDLIEQTEPGKGGEIQITDALMKQAQDGCVLAYKFKGKRFDCGSAEGYIEATNFCYENLYKTGKAH", "values": [{"measurement": "stoichiometry N", "setting": "[5]", "value": 3.7}, {"measurement": "In vitro activity (% of WT), EnzChek pyrophosphate assay, forward reaction", "setting": "[2]", "value": "47.2 % of WT"}, {"measurement": "N of the monomer peak (minor peak)", "setting": "Q9I291 [6]", "value": 1.3}, {"measurement": "stoichiometry N", "setting": "[4]", "value": 4}]}, {"protein": "PaUGP R101A (enzyme, UDP-glucose pyrophosphorylase of Pseudomonas aeruginosa (galU), residues 1-279, point mutant of Strep-PaUGP; Same construct as m1; source: E. coli BL21(DE3), purified (Strep-Tactin Sepharose); not shown: Strep-tagII, N-terminal, kept) MIKKCLFPAAGYGTRFLPATKAMPKEMLPVVNKPLIQYAVEEALEAGLSEIGIVTGRGKRSLEDHFDISYELEHQIRNTDKEKYLVGIRRLIDECTFAYTAQVEMKGLGHAILTGRPLIGDEPFAVVLADDLCLNLEGDSVLKQMVKLYNQFRCSIVAIQEVPPEETNKYGVIAGEMIRDDIFRVNTMVEKPKPEEAPSNLAIIGRYILTPDIFDLIEQTEPGKGGEIQITDALMKQAQDGCVLAYKFKGKRFDCGSAEGYIEATNFCYENLYKTGKAH", "values": [{"measurement": "N of a minor peak", "setting": "[1]", "value": 3.6}, {"measurement": "stoichiometry N", "setting": "[1]", "value": 1.8}, {"measurement": "In vitro activity (% of WT), EnzChek pyrophosphate assay, forward reaction", "setting": "[2]", "value": "0.83 % of WT"}, {"measurement": "N of the monomer peak (minor peak)", "setting": "Q9I291 [3]", "value": 1.2}]}, {"protein": "PaUGP R101K (enzyme, UDP-glucose pyrophosphorylase of Pseudomonas aeruginosa (galU), residues 1-279, point mutant of Strep-PaUGP; Same construct as m1; source: E. coli BL21(DE3), purified (Strep-Tactin Sepharose); not shown: Strep-tagII, N-terminal, kept) MIKKCLFPAAGYGTRFLPATKAMPKEMLPVVNKPLIQYAVEEALEAGLSEIGIVTGRGKRSLEDHFDISYELEHQIRNTDKEKYLVGIRRLIDECTFAYTKQVEMKGLGHAILTGRPLIGDEPFAVVLADDLCLNLEGDSVLKQMVKLYNQFRCSIVAIQEVPPEETNKYGVIAGEMIRDDIFRVNTMVEKPKPEEAPSNLAIIGRYILTPDIFDLIEQTEPGKGGEIQITDALMKQAQDGCVLAYKFKGKRFDCGSAEGYIEATNFCYENLYKTGKAH", "values": [{"measurement": "stoichiometry N", "setting": "[1]", "value": 2.1}, {"measurement": "In vitro activity (% of WT), EnzChek pyrophosphate assay, forward reaction", "setting": "[2]", "value": "1.31 % of WT"}, {"measurement": "N of the monomer peak (minor peak)", "setting": "Q9I291 [3]", "value": 1.2}]}, {"protein": "PaUGP R57K (enzyme, UDP-glucose pyrophosphorylase of Pseudomonas aeruginosa (galU), residues 1-279, point mutant of Strep-PaUGP; Same construct as m1; source: E. coli BL21(DE3), purified (Strep-Tactin Sepharose); not shown: Strep-tagII, N-terminal, kept) MIKKCLFPAAGYGTRFLPATKAMPKEMLPVVNKPLIQYAVEEALEAGLSEIGIVTGKGKRSLEDHFDISYELEHQIRNTDKEKYLVGIRRLIDECTFAYTRQVEMKGLGHAILTGRPLIGDEPFAVVLADDLCLNLEGDSVLKQMVKLYNQFRCSIVAIQEVPPEETNKYGVIAGEMIRDDIFRVNTMVEKPKPEEAPSNLAIIGRYILTPDIFDLIEQTEPGKGGEIQITDALMKQAQDGCVLAYKFKGKRFDCGSAEGYIEATNFCYENLYKTGKAH", "values": [{"measurement": "stoichiometry N", "setting": "[1]", "value": 3.2}, {"measurement": "In vitro activity (% of WT), EnzChek pyrophosphate assay, forward reaction", "setting": "[2]", "value": "2.36 % of WT"}, {"measurement": "N of the monomer peak (minor peak)", "setting": "Q9I291 [3]", "value": 1.2}, {"measurement": "stoichiometry N", "setting": "[4]", "value": 4}]}, {"protein": "PaUGP N266D (enzyme, UDP-glucose pyrophosphorylase of Pseudomonas aeruginosa (galU), residues 1-279, point mutant of Strep-PaUGP; Same construct as m1; source: E. coli BL21(DE3), purified (Strep-Tactin Sepharose); not shown: Strep-tagII, N-terminal, kept) MIKKCLFPAAGYGTRFLPATKAMPKEMLPVVNKPLIQYAVEEALEAGLSEIGIVTGRGKRSLEDHFDISYELEHQIRNTDKEKYLVGIRRLIDECTFAYTRQVEMKGLGHAILTGRPLIGDEPFAVVLADDLCLNLEGDSVLKQMVKLYNQFRCSIVAIQEVPPEETNKYGVIAGEMIRDDIFRVNTMVEKPKPEEAPSNLAIIGRYILTPDIFDLIEQTEPGKGGEIQITDALMKQAQDGCVLAYKFKGKRFDCGSAEGYIEATDFCYENLYKTGKAH", "values": [{"measurement": "stoichiometry N", "setting": "[5]", "value": 4.2}, {"measurement": "In vitro activity (% of WT), EnzChek pyrophosphate assay, forward reaction", "setting": "[2]", "value": "105 % of WT"}, {"measurement": "N of the monomer peak (minor peak)", "setting": "Q9I291 [6]", "value": 1.2}, {"measurement": "stoichiometry N", "setting": "[4]", "value": 4}]}, {"protein": "PaUGP K21A (enzyme, UDP-glucose pyrophosphorylase of Pseudomonas aeruginosa (galU), residues 1-279, point mutant of Strep-PaUGP; source: E. coli BL21(DE3), purified (Strep-Tactin Sepharose); not shown: Strep-tagII, N-terminal, kept) MIKKCLFPAAGYGTRFLPATAAMPKEMLPVVNKPLIQYAVEEALEAGLSEIGIVTGRGKRSLEDHFDISYELEHQIRNTDKEKYLVGIRRLIDECTFAYTRQVEMKGLGHAILTGRPLIGDEPFAVVLADDLCLNLEGDSVLKQMVKLYNQFRCSIVAIQEVPPEETNKYGVIAGEMIRDDIFRVNTMVEKPKPEEAPSNLAIIGRYILTPDIFDLIEQTEPGKGGEIQITDALMKQAQDGCVLAYKFKGKRFDCGSAEGYIEATNFCYENLYKTGKAH", "values": [{"measurement": "N of a minor peak", "setting": "[1]", "value": 2.3}, {"measurement": "In vitro activity (% of WT), EnzChek pyrophosphate assay, forward reaction", "setting": "[2]", "value": "5 % of WT"}, {"measurement": "N of the monomer peak (main peak)", "setting": "Q9I291 [3]", "value": 1.2}]}, {"protein": "PaUGP H74A (enzyme, UDP-glucose pyrophosphorylase of Pseudomonas aeruginosa (galU), residues 1-279, point mutant of Strep-PaUGP; Same construct as m1; source: E. coli BL21(DE3), purified (Strep-Tactin Sepharose); not shown: Strep-tagII, N-terminal, kept) MIKKCLFPAAGYGTRFLPATKAMPKEMLPVVNKPLIQYAVEEALEAGLSEIGIVTGRGKRSLEDHFDISYELEAQIRNTDKEKYLVGIRRLIDECTFAYTRQVEMKGLGHAILTGRPLIGDEPFAVVLADDLCLNLEGDSVLKQMVKLYNQFRCSIVAIQEVPPEETNKYGVIAGEMIRDDIFRVNTMVEKPKPEEAPSNLAIIGRYILTPDIFDLIEQTEPGKGGEIQITDALMKQAQDGCVLAYKFKGKRFDCGSAEGYIEATNFCYENLYKTGKAH", "values": [{"measurement": "stoichiometry N", "setting": "[5]", "value": 3.7}, {"measurement": "In vitro activity (% of WT), EnzChek pyrophosphate assay, forward reaction", "setting": "[2]", "value": "60.3 % of WT"}, {"measurement": "N of the monomer peak (minor peak)", "setting": "Q9I291 [6]", "value": 1.3}, {"measurement": "stoichiometry N", "setting": "[4]", "value": 4}]}, {"protein": "PaUGP K21Q (enzyme, UDP-glucose pyrophosphorylase of Pseudomonas aeruginosa (galU), residues 1-279, point mutant of Strep-PaUGP; Same construct as m1; source: E. coli BL21(DE3), purified (Strep-Tactin Sepharose); not shown: Strep-tagII, N-terminal, kept) MIKKCLFPAAGYGTRFLPATQAMPKEMLPVVNKPLIQYAVEEALEAGLSEIGIVTGRGKRSLEDHFDISYELEHQIRNTDKEKYLVGIRRLIDECTFAYTRQVEMKGLGHAILTGRPLIGDEPFAVVLADDLCLNLEGDSVLKQMVKLYNQFRCSIVAIQEVPPEETNKYGVIAGEMIRDDIFRVNTMVEKPKPEEAPSNLAIIGRYILTPDIFDLIEQTEPGKGGEIQITDALMKQAQDGCVLAYKFKGKRFDCGSAEGYIEATNFCYENLYKTGKAH", "values": [{"measurement": "N of a minor peak", "setting": "[1]", "value": 2.7}, {"measurement": "In vitro activity (% of WT), EnzChek pyrophosphate assay, forward reaction", "setting": "[2]", "value": "1.26 % of WT"}, {"measurement": "N of the monomer peak (main peak)", "setting": "Q9I291 [3]", "value": 1.4}]}, {"protein": "Pseudomonas aeruginosa uridine diphosphate-glucose pyrophosphorylase, wild type (Strep-PaUGP) (enzyme, UDP-glucose pyrophosphorylase (UGP, EC 2.7.7.9) of Pseudomonas aeruginosa, galU gene amplified from plasmid PaCD00006903; residues 1-279; no cleavage is reported; Crystallised with UDP-Glc and Mg2+; also called PaUGP WT; Strep-tagged PaUGP; source: E. coli BL21(DE3), purified (Strep-Tactin Sepharose); not shown: Strep-tagII, N-terminal, kept) MIKKCLFPAAGYGTRFLPATKAMPKEMLPVVNKPLIQYAVEEALEAGLSEIGIVTGRGKRSLEDHFDISYELEHQIRNTDKEKYLVGIRRLIDECTFAYTRQVEMKGLGHAILTGRPLIGDEPFAVVLADDLCLNLEGDSVLKQMVKLYNQFRCSIVAIQEVPPEETNKYGVIAGEMIRDDIFRVNTMVEKPKPEEAPSNLAIIGRYILTPDIFDLIEQTEPGKGGEIQITDALMKQAQDGCVLAYKFKGKRFDCGSAEGYIEATNFCYENLYKTGKAH", "values": [{"measurement": "stoichiometry N", "setting": "[7]", "value": 4}]}]}
